Source: patent US20250295734A1, “ANTICOAGULANT PROTEINS AND THEIR USE FOR TREATING DISEASES ASSOCIATED WITH THE ACTIVATION OF NEUTROPHILS” (BIOXODES, priority 2018, published 2025)

Tests used:
[1] = tested on: platelet accumulation and fibrin generation on the injured vessel walls; assay: Laser-induced vessel wall injury of cremaster muscle arterioles: platelet and fibrin detection; type: in vivo, mice (C57BL/6JRj); settings: iv bolus 20.5 mg/kg + infusion 3.7 mg/kg/h
Procedure: Ir-CPI was administered intravenously as a bolus (20.5 mg/kg) immediately followed by a continuous infusion at a rate of 3.7 mg/kg/h (see Table 1 below). Due to fast distribution and elimination of Ir-CPI in the mice (t1/2α=14 min and t1/2β=236 min), the combination of the bolus and the infusion was chosen in order to maintain a constant Ir-CPI concentration into the blood.
Intravital video-microscopy of the cremaster muscle microcirculation was done as previously described (Falati et al., 2002).
Mice were anesthetized with intraperitoneal injection of ketamine (125 mg/kg), xylazine (12.5 mg/kg) and atropine (0.25 mg/kg) and were maintained at 37° C. on a thermo-controlled rodent blanket.
A tracheal tube was inserted into the trachea to facilitate breathing. A canula was inserted into a jugular vein for administration of pentobarbital. Pentobarbital (12 mg/kg) was administered in the jugular vein every 20-30 minutes to maintain the mice under anesthesia throughout the handling. The same jugular vein canula was used for the administration of the antibodies and the enzymatic substrate coupled to a fluorochrome that is necessary to follow the development of the thrombus (detection of fibrin and/or platelets and/or neutrophils and/or neutrophil elastase activity). A canula was also inserted in the second contralateral jugular vein for administration of the vehicle or the test item (Ir-CPI or NaCl).
After the scrotum was incised, the testicle and surrounding cremaster muscle were exteriorized onto an intravital microscopy tray. The cremaster muscle was continuously perfused with thermo-controlled (37° C.) and aerated (95% N2, 5% CO2) bicarbonate-buffered saline solution throughout the experiment.
Microvessel data were obtained using an Olympus AX61WI microscope with a 60×0.9-numerical aperture water immersion objective. The digital wide-field fluorescence microscopy system has previously been described (Falati et al., 2002). Digital images were captured with a Cooke Sensicam CCD camera in 640×480 format.
Vessel wall injury was induced with a Micropoint Laser System (Photonics Instruments) focused through the microscope objective, parfocal with the focal plane and aimed at the vessel wall, as previously described (Dubois et al., 2006). Typically, 1 or 2 pulses were required to induce vessel wall injury.
Multiple thrombi were studied in a single mouse, with new thrombi formed upstream of earlier thrombi to avoid any contribution from thrombi generated earlier in the animal under study. Laser-beam injuries were done at various time after the start of test-item administration (+5 min up to about 150 min after bolus administration of Ir-CPI or NaCl (control)).
Image analysis was performed using Slidebook 4.1 (Intelligent Imaging Innovations). Fluorescence data were captured digitally at up to 50 frames per second and analyzed as previously described (Falati et al., 2002). The kinetics of thrombus formation were analyzed by determining median fluorescence values over time in a minimum number of 20 thrombi.
In vivo detection of fibrin was performed using an Alexa Fluor 488-conjugated anti-fibrin antibody from Darbousset et al., 2014, administered intravenously at 0.5 μg/g of mouse. […]
Platelet accumulation and fibrin generation on the injured vessel walls were monitored using the following fluorescently labeled antibodies: DyLight649-labeled anti-GPIb antibody and Alexa Fluor 488-conjugated anti-fibrin antibody, respectively.

[2] = tested on: neutrophils isolated from bone marrow of femurs of mice; assay: Neutrophil activation following incubation with TNFα (flow cytometry); type: cell-based, mice (C57BL/6)
Procedure: Neutrophils were isolated from the bone marrow of femurs of mice (C57BL/6) as previously described (Hu 2012), using FR-1-coupled magnetic beads (anti-Ly6G Microbead Kit, Miltenyi Biotec). For activation with TFNα, cells were harvested, centrifugated and incubated during 30 min with or without 2 ng/ml of TNFα in Hanks solution (Gibco). Next, neutrophils were incubated with Ir-CPI (0.65 or 2 μM) in Hanks solution (1 h at 37° C.). For activation with ATP, cells were harvested, centrifugated and incubated with ATP 10 μM and Ir-CPI (0.65 or 2 μM) in Hanks solution (1 h at 37° C.). After washing of cells, expression of CD11b, activated CD11b or Ly6G was assessed by flow cytometry (Beckman Coulter Gallios). Antibodies used for neutrophil identification and activation analyses were IRR IgG1-FITC (irrelevant antibody), anti-CD45-APC, anti-Ly6G-PE and anti-CD11b-FITC or Alexa Fluor 647 anti-activated CD11b-. Analysis of results was performed using the Kaluza software (Beckman Coulter). […]
Neutrophils isolated from bone marrow of femurs of mice were submitted to different in vitro experimental conditions (untreated control, priming with TNFα and/or incubation with Ir-CPI) to assess the effect of Ir-CPI on their activation status. The activation status was assessed by analyzing the percentage of CD11b expression at the surface of neutrophils (FIG. 16).

prekallikrein (PK) = prekallikrein (PK) (Homo sapiens, UniProt P03952); settings: cited from earlier work
prekallikrein (PK), sequence (P03952 20-638): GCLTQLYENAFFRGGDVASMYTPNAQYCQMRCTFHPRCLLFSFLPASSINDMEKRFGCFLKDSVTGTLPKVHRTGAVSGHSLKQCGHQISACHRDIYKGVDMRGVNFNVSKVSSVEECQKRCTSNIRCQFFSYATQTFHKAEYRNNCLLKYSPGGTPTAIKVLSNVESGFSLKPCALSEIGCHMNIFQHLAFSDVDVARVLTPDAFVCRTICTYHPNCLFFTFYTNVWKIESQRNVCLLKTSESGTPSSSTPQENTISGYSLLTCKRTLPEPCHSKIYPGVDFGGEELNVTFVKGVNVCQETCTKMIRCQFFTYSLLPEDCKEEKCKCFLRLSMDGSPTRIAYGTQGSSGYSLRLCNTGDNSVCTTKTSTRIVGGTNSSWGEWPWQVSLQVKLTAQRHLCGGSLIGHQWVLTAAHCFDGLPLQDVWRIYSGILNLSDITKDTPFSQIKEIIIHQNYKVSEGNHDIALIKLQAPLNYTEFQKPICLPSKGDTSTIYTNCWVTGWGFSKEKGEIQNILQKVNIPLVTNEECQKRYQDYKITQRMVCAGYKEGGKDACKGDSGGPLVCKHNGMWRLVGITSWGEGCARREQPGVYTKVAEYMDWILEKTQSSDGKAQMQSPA

B1: Ir-CPI: Ixodes ricinus salivary gland polypeptide, contact phase inhibitor, MW=7660 Da; sequence SEQ ID NO: 1 or SEQ ID NO: 2 (protein)
chain: ANHKGRGRPAKCKLPPDDGPCRARIPSYYFDRKTKTCKEFMYGGCEGNENNFENITTCQEECRAKKV
maximal median of integrated platelet fluorescence ([1]; at T214 sec after laser injury): 121 783 AU | median of integrated platelet fluorescence ([1]; at T228 sec (end of measurement)): 101 887 AU | median of integrated fibrin fluorescence intensity compared to control mice ([1]; every time point 0, 15, 30, 45, 75 and 90 min): lower | fibrin generation compared to control mice ([1]; first 3.8 min after laser injury): less important | platelet accumulation compared to control mice ([1]; short time period (228 sec)): drastically decreased | CD11b expressed at cell surface ([2]; neutrophils primed with TNFα, Ir-CPI 2 μM, *p<0.05): significant reduction | expression of CD11b ([2]; untreated neutrophils, Ir-CPI 0.65 and 2 μM): no effect | binding to prekallikrein (PK) (prekallikrein (PK)): unable to bind
